Laboratory results taken from patent US20110243972A1 (Johns Hopkins, published 2011).

What was measured:
[1] = target: T1, HLA-A2 on T2 cells (HLA-A*0201) (human); test: T2 stabilisation assay, flow cytometry with W6/32
T1 construct: Class I molecule on the T2 cell surface, stabilised by peptide; Detected with mAb W6/32; also called T2-A2
Source text: (§1) T2 cells were pulsed with 225 micrograms of peptide per ml overnight at room temperature before analysis by flow cytometry. T2 cells expressing HLA-A2 (A) or HLA-A24 (C) were stained with an unlabeled mouse anti-HLA class I molecule monoclonal antibody W6/32 and a goat-anti-mouse FITC-labeled IgG2a secondary antibody. T2 cells genetically modified to express A3 (B) were stained with an unlabeled mouse anti-human HLA-A3 specific monoclonal antibody GAPA3 and a FITC-labeled IgG2a secondary antibody.
(§2) Materials and Methods. Peptide/MHC binding Assays. T2 cells expressing the HLA molecule of interest were resuspended in AimV serum free media (Gibco, Grand Island, N.Y.) to a concentration of 1×10⁶ cells/ml and pulsed with 3 μg/ml beta-2 microglobulin (β₂-M) (Sigma, St. Louis, Mo.) plus peptide at 0-225 μg/ml of peptide at room temperature overnight. The cells were washed and resuspended at 2×10⁵ cells/ml. The level of stabilized MHC on the cell surface of the T2 and T2-A24 cells were analyzed by direct staining of cell samples with unlabeled anti-class I mAb W6/32 and a FITC-labeled goat-anti-mouse IgG2a secondary antibody.

[2] = target: T2, HLA-A3 on T2-A3 cells (HLA-A*0301) (human); test: T2-A3 stabilisation assay, flow cytometry with GAPA3
T2 construct: Detected with the anti-HLA-A3 mAb GAPA3
Source text: as §1, §2

B1: Mesothelin A1 (309-317) peptide (EIDESLIFY) (peptide)
peptide: EIDESLIFY
binding result [1]: no binding (tested: 225 micrograms of peptide per ml)
binding result [2]: no binding (tested: 225 micrograms of peptide per ml)
